# The DeepSol protein solubility set
# Assay: soluble on expression in E. coli; label from the status in PepcDB or PDB records
row,Sequence,soluble on expression in E. coli
1,MSIIEDNKISFVIPTINEEKTIGSVIDGIHENFPNAEIILVDTNSTDKTKEIAKSKGATVIEEPRKGYGRAYQTGIPAAKGDIIVCMDGDGTYPTDIVKPLIEILILDKVDFISCDRITFRTSTNYTTLHYVGNMVLNLTIRILFKVRMVDSQSGMWIFRSELYKKMKNLGYGMSFSQNIKIEAVRHGVFIEIPIRYGVRITKPKLKTWHDGFHNLFALFIKRVSELEHHHHHH,soluble
2,MSLTLTEVAEFVGVSAMTVSRALRMPEKVNPELRDRIDAAVSQLGYVPNLQARNLASVHSDLILAVVPTFSSPGFLPVSEALQKVLTERGYTMMFMESGHDGQSEQKTFEKMLAYNPAAIIQFNIDTIESCTQLLANVDVPILEIGALNTHPVGMCIGVDYGKAVKQIVTHLADASLKNIALLCTPANNTMFRQLLSGWNTAMLALNRSPHRVVTTHLPSTIATGVNIFKDMMITWGDLDALICTSDEMACGCMMACHSAGIKVPNTVAIASLGGGVLSTVCSPALTTVEFPWHDIGVKAGKALLELLNDKPGEKFIEIPSVLKVRASTAEGHHHHHH,soluble
3,MKVYLHFSPQFFANTYLIGNEITKEAVIIDPAKITEKMIHQIEKNEFNLKAVLLTHDLEHPYETGLNTILKIYSPKVYAGSCFSENVTINTLRGDGCIDVAGYSVRYFAIPAHSSYSYMFQIENMVFTGTSLSAGMIGQTSNMYAERTLRNILKTKLMCFEDNLIIMPFYGPPTSIGVERKYNASFFQDFEKKPFLEHHHHHH,soluble
4,MGSDKIHHHHHHESEDPWLVLQKAARAAHELSYKGVFIYQAGDNIKSVQITHTNSGQGEYARMVVLDGAPREVLSQGGDVVIFSSKNEKVIMEKRRAHNLFPAVLPDDMELLKANYQARIGGTERIAGRAGRVVFLDPRDGLRYAYKFWADCEYGLLLKSLMLSEQKQMLEQMAFSQLNMMEEQGMDWFHPSVDHSKHYILEEANAQLVQEASNWTVGALPVGYRKVEQVTRLVPGKSAPVTQVIFTDGLASVSLFIEPLSKGVRPRIGQTSKGATHFYANVSKGHQILVVGEVPAATVAQIGSAVSFK,not soluble
5,MGSDKIHHHHHHMKIAVINFSGNVGKTTVSRHLLLPRIQGAELISVESVNADEGKTTALRGGQFAELQEYLQTVNSAIVDIGASNVDQLLFLMQSYRGSHEDFDCFVVPTVPPLKQQQDTIATLIDLSRLGVPPSRLKILFNMTEPGRPVEQTFYLLLAYLAQHPIAVPNTACSLGANEIYGRIRGIKSDLGTLARDTTDYKSLIAKAKDATEKLALAQKLATRRLASGVVLELDACFGALDLHALSAGASPTETSAEA,not soluble
6,MLRVIVESASNIPKTKFGKPDPIVSVIFKDEKKKTKKVDNELNPVWNEILEFDLRGIPLDFSSSLGIIVKDFETIGQNKLIGTATVALKDLTGDQSRSLPYKLISLLNEKGQDTGATIDLVIGYDPP,soluble
7,EPEEVIPSRLDIRVGKIITVEKHPDADSLYVEKIDVGEAEPRTVVSGLVQFVPKEELQDRLVVVLCNLKPQKMRGVESQGMLLCASIEGINRQVEPLDPPAGSAPGEHVFVKGYEKGQPDEELKPKKKVFEKLQADFKISEECIAQWKQTNFMTKLGSISCKSLKGGNISLE,soluble
8,MGSDKIHHHHHHVEYRLPAEGSNLVGENQYYVVPEGKLTLEQIASQFQLGLTNLLEANPGVDPFLPKPGSTLLIPHQLILPNAKREGVVINSAEMRLYYYPKGKNTVEVLPIGIGQIGKDTPENWVTTVQRKRANPTWTPTVNIRKSYAAKGITLPAVWPAGADNPMGLFALYVGNLYAVHGTNATFGIGLRVSSGCVRLRDEDIEHLYNSVPVGTRVEFINQPIKATEEPDGNRYLEVHEPLSRTQAEFDSLEPVALSFDKAMTRFVAHPDTDSFTLKRLLEQRTGMPTRINP,not soluble
9,MLNETIQKEFQRKEIKYLIEADTFEQLQKEFKDYLTPDRFTHSSITNIYFDNPDFQLIKDSINHRHASEKIRMRTYDPKPTQKSQAFLEIKKKEYQGEQEIGYKYRLTSTPLSLCNYVQQGIIDNNIKQDDRANHELAILRERYKKLVPKMFIHYERFSLRGIENPKLRVTFDRNVIYRHENVNLTSGFNGYPLLKNNQIVMEIKVKNGLPAWMEKIFHKHQLIPQSFSKYTTAYLKAYGLTPEDIREEPTSIALEHHHHHH,soluble
